By Kd is commonly meant the equilibrium constant for the complex coming apart. The koff is the first-order rate constant of dissociation. The low end stands for slow dissociation, the high end for fast dissociation. A word on the kon: it is the rate constant with which the complex forms.

The record followed here is US20250019435A1 (ALBERT EINSTEIN COLLEGE OF MEDICINE, published 2025).

Assay [1] concerns the target T1, PVR expressed on transduced cells (PVR-YFP) (UniProt P15151 21-417).
T1 construct: whole, on cells; On NIH 3T3 or Raji cells; also called PVR/3T3; PVR-YFP/3T3; not shown: YFP ('PVR-YFP ... fusion protein')
T1 sequence (looked up): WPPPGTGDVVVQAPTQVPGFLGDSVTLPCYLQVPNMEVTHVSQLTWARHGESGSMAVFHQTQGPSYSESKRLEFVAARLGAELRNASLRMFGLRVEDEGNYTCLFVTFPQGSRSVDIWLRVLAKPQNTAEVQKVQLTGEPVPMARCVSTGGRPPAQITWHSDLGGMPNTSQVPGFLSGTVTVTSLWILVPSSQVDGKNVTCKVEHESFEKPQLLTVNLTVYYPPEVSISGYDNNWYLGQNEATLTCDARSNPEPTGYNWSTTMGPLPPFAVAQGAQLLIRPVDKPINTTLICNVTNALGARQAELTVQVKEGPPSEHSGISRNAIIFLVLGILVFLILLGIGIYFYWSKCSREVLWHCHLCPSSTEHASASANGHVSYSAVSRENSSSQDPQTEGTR
Description: confocal imaging of conjugates of transduced primary NK cells with PVR-YFP/Raji cells. The method, then: (§1) The KIR2DL5⁻ primary NK cells were transduced with WT KIR2DL5 or the indicated mutants, and then examined for protein expression with F8B30 (open) or mIgG1 (shaded). NC, negative control. Data are representative of 2 independent experiments. (B and C) Transduced primary NK cells were treated with (+) or without (−) pervanadate (VO₄) for 5 minutes. Cell lysates were immunoprecipitated with anti-KIR2DL5 antibodies. Phospho-tyrosine (4G10), SHP-1, SHP-2, and total KIR2DL5 were detected by immunoblots (B). Quantification of p-Tyr, SHP-1, and SHP-2 association with WT or mutant KIR2DL5 in VO₄-treated NK cells (C). WCL, whole-cell lysates. (D) Representative imaging of cell conjugates acquired upon the indicated transduced primary NK and PVR/Raji cell contact followed by staining with anti-KIR2DL5 mAb and DAPI. Scale bars: […]. (E) Lysis of scramble control or PVR^KO A427 (top) and Jurkat (bottom) by WT or mutant KIR2DL5-transduced primary NK cells at the indicated E/T ratios. Data are mean for duplicate measurements and representative of 3 independent experiments with 3 different donors. In A, and B, data are representative of 3 independent experiments. *P<0.05, **P<0.01, ***P<0.001, ****P<0.0001, by 1-way ANOVA (C), or paired Student's t test (D).
NK-Raji conjugation assay. […] Cell mixtures were then loaded onto poly-L-lysine-precoated slides and fixed with 4% formaldehyde at RT for 15 minutes. After blocking with 5% normal goat serum at RT for 1 hour, cells were stained with 20 µg/mL anti-KIR2DL5 antibodies (a mixture of 8 homemade clones) at 4° C. overnight and then with goat anti-mIgG (H+L) Alexa Flour 647 (Invitrogen) at RT for 2 hours. The cells were permeabilized by 0.1% Triton X-100 at RT for 15 minutes and stained with Alexa Flour Plus 405 Phalloidin (Life Technologies) for 1 hour at RT. The slides were then mounted by Gold Antifade Mountant without DAPI (Life Technologies). The mean pixel intensity of synapse and non-synapse was respectively measured and statistically analyzed. Images were acquired by Leica SP8 confocal microscope and processed by ImageJ (NIH).

The target in another assay is T2, SHP-2 (human, UniProt Q06124 2-593).
T2 sequence (looked up): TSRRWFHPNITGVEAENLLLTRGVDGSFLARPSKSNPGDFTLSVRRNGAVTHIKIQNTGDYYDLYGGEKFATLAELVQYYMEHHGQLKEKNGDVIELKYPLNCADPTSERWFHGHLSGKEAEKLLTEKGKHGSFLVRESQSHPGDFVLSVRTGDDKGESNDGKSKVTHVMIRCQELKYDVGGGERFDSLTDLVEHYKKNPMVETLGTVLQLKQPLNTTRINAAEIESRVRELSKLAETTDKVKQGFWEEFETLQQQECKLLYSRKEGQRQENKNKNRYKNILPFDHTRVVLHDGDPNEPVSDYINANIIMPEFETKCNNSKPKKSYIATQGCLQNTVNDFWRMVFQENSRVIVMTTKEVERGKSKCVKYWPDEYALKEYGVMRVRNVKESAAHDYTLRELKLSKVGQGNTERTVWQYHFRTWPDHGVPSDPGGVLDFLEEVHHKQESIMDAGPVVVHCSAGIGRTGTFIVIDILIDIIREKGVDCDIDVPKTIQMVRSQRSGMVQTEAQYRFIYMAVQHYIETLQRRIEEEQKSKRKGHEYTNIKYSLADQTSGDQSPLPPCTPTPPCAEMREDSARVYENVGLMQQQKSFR
Description: co-immunoprecipitation with anti-KIR2DL5 from transduced primary NK cells with or without pervanadate, immunoblot. The protocol:
as §1, with “FIG. 12A-12E: KIR2DL5 ITIM and ITSM mediated NK cell inhibition and suppressed downstream signaling. (A) Tyrosine (Y) in ITIM and ITSM of KIR2DL5 was mutated to phenylalanine (F). The” for “The”
Coimmunoprecipitation and immunoblotting. NK92 cells or primary NK cells pretreated with or without 1 mM pervanadate (New England BioLabs) were lysed in Pierce immunoprecipitation lysis buffer supplemented with protease and phosphatase inhibitor cocktail (Thermo Fisher Scientific). Proteins from whole-cell lysis were further incubated with anti-KIR2DL5 antibodies and Dynabeads protein G (Thermo Fisher Scientific) for further immunoprecipitation. […]
In general terms: A western blot detects proteins with antibodies after separation by electrophoresis.

Assay [2] deals with T3, KIR2DL5-Ig fusion protein (KIR2DL5 extracellular domain fused to human IgG1 Fc) (human, UniProt Q8N109 22-240).
T3 construct: A D0-only fusion (H22-A128) also exists; also called KIR2DL5-human Ig fusion protein; KIR2DL5 DO-D2-Ig; not shown: human IgG1 Fc tag
Briefly: BLI, Octet RED96; KIR2DL5-Ig captured on anti-human Fc biosensors, mAb in solution; global 1:1 fit. The method, then: Biolayer interferometry. The affinities of anti-KIR2DL5 mAbs were analyzed by biolayer interferometry using an Octet RED96 system (ForteBio, Pall LLC). Briefly, anti-human Fc capture biosensors (ForteBio, Pall LLC) were preloaded with KIR2DL5-Ig and then dipped into a solution containing mAb at 2-fold serial dilutions (from 200 to 1.5 μg/mL). Data were analyzed using Forte Pall (Port Washington, New York, USA) software 9.0. The global data fitting to a 1:1 binding model was used to estimate values for the Kₒₙ (association rate constant), Koff (dissociation rate constant), and KD (equilibrium dissociation constant).
In general terms: Biolayer interferometry detects binding as a change in optical thickness at a sensor tip.

In assay [3] the target is T4, D0-deleted KIR2DL5 expressed on 3T3 cells (human, UniProt Q8N109 119-375).
T4 construct: the signal peptide 1-21 is left out; also called KIR2DL5 dD0; DO-deleted KIR2DL5
Briefly: flow cytometry, transduced 3T3 cells. The source says:
(§2) FIG. 15A-15E: Characterization of anti-KIR2DL5 specific monoclonal antibodies. (Related to FIGS. 8A-8D). (A) The protein sequence of KIR2DL5. The extracellular domain of KIR2DL5 was composed of tandem DO-D2 domains. The cytoplasmic tail of KIR2DL5 contained an immunoreceptor tyrosine-based inhibition motif (ITIM) and immunoreceptor tyrosine-based switch motif (ITSM). Domains were predicted and annotated based on UniProtKB (Q8N109). (B) The specificity of anti-KIR2DL5 mAbs. 3T3 cells transduced with indicated KIR family members were stained with 5 μg/ml of indicated anti-KIR2DL5 mAbs (open) or mIgG1 (shaded). (C, D) The affinity of anti-KIR2DL5 mAbs. C: Kinetic binding curves for F8B30 and B19C11. D: Data were acquired from kinetic binding curves detected by the Octet Red96 BLI instrument for indicated clones. (E) 3T3 cells transduced with DO-deleted (KIR2DL5 dD0) or D2-deleted KIR2DL5 (KIR2DL5 dD2) were stained with 5 μg/ml of indicated anti-KIR2DL5 mAbs. In B-E, data are representative of three independent experiments.
(A flow cytometer gives signals particle by particle.)

Assay [4] concerns the target T5, D2-deleted KIR2DL5 expressed on 3T3 cells (human, UniProt Q8N109 22-375).
T5 construct: also called KIR2DL5 dD2
Description: flow cytometry, transduced 3T3 cells.
Description: as §2

B1: Y298F (receptor)
receptor chain: HEGGQDKPLLSAWPSAVVPRGGHVTLLCRSRLGFTIFSLYKEDGVPVPELYNKIFWKSILMGPVTPAHAGTYRCRGSHPRSPIEWSAPSNPLVIVVTGLFGKPSLSAQPGPTVRTGENVTLSCSSRSSFDMYHLSREGRAHEPRLPAVPSVNGTFQADFPLGPATHGGTYTCFGSLHDSPYEWSDPSDPLLVSVTGNSSSSSSSPTEPSSKTGIRRHLHILIGTSVAIILFIILFFFLLHCCCSNKKNAAVMDQEPAGDRTVNREDSDDQDPQEVTFAQLDHCVFTQTKITSPSQRPKTPPTDTTMYMELPNAKPRSLSPAHKHHSQALRGSSRETTALSQNRVASSHVPAAGI
notes: also called KIR2DL5 Y298F (ITIM mutant) on transduced primary NK cells
For the molecule B1, the binding result in assay [1] is reported as “binds”; with SHP-2 it was “no binding”.

B2: anti-KIR2DL5 mAb clone B7B23 (antibody, V domains shown)
VH: QVQLQQSGAELVRPGVSVKISCKGSGYTFTDYTMHWVKQSHAKSLEWIGVISPYYGDASYNQKFKGKATMTVDKSSSTAYMELARLTSEDSAIYYCARGLLRGFAYWGQGTLVTVS
VL: DIVMTQSPSSKDMSVGQKVTMRCKSSKSLLNSSNQKKYLAWYQQKPGQSPKLLVYFASIRESGVPDRFIGSGSGTDFTLTISSVQVEDLADYFCQQHYSTPWTFGGG
notes: also called B7B23 (IgG1, κ)
With B2, in assay [2], the Kd worked out at 0.0413 nM, the koff came out at 6.96e-05 s⁻¹ and the kon came to 1.69e+06 M⁻¹ s⁻¹. Also, in assay [3], the binding result is “no binding (tested: 5 µg/ml)”. Moreover, the binding result in assay [4] is given as “no binding (tested: 5 µg/ml)”.
